Test results as given in patent US20100009390A1, “MUTANT ANTIBODIES WITH HIGH AFFINITY FOR EGFR” (THE REGENTS OF THE UNIVERSITY OF CALIFORNIA, priority 2008, published 2010).
Several values for one entry are separate records, joined by “and”; a condition that tells them apart may be missing. Identical values can stand only once. Like-named read-outs stand apart in the source and are kept apart here.

Tests used:
[1] = target: T1, epidermal growth factor receptor (EGFR) on tumor cells (human, UniProt P00533 25-1210); assay: flow cytometry, soluble monomeric scFv on A431 cells, 4 C, equilibrium
T1 construct: whole, on cells; also called EGFR on A431 cells; EGFR on MDAMB468 cells
Method: (§1) Cell binding was performed at 4° C. in FACS buffer in a volume calculated to ensure fivefold scFv excess and for a duration calculated to ensure that the reaction had reached equilibrium. After two washes with 200 μL of FACS buffer, cell-bound scFv was detected by the addition of 100 μl of 1 μg/ml biotinylated His probe (Santa Cruz Biotech.) and a 1:800 (v/v) dilution of streptavidin-PE (Biosource). After incubation at 4° C. for 30 min, the cells were washed twice and resuspended in PBS containing 4% (v/v) paraformaldehyde. Fluorescence was measured by flow cytometry in a FACS LSRII instrument (Becton Dickinson), and the median fluorescence intensity (MFI) values were fit to the equation: […]
(§2) To generate soluble scFv, the scFv genes were subcloned from pYD2 into the bacterial secretion vector pSYN1 (Schier et al (1995) Immunotechnology, 1:73-81), which directed the scFv to the bacterial periplasm using the pelB leader. The scFv was harvested from the bacterial periplasm and purified by immobilized metal-affinity chromatography as described (Id.). […] To ensure that the KD of monovalent scFv was determined, gel-filtration chromatography was performed as described (Schier and Marks (1996) Hum. Antibodies Hybridomas: 7: 97-105) to separate native monovalent scFv from dimeric scFv and aggregated scFv. scFv was used for cellular KD measurements immediately after gel-filtration.

MDAMB231 cells = assay: Uptake of EGFR immunoliposomes into cells of lower EGFR density; format: cell-based, human; conditions: for IL uptake into MDAMB231 cells compared to A431 cells: all scFv densities studied, 480,000 EGFR/cell
Method: (§3) scFv-mediated internalization of fluorescent immunoliposomes was analyzed and quantified by microscopy and flow cytometry. C10 scFv fragments were inserted into liposomes at ratios of 5, 10, 15, 30 and 60 μg scFv/μmol phospholipid (Mamot et al. (2003) Cancer Res. 63: 3154-3161). scFv densities of 16, 32, 48, 96 and 192 scFv/liposome were calculated on the basis of the molecular mass of scFv (26 kDa) and the approximate number of phospholipid molecules/liposome (80,000). The conjugation technology for scFv to Mal-PEG-DSPE is remarkably reproducible with an efficiency of 77.3(±3.1) % (range 75-82% over six batches) (Nellis et al. (2005) Biotechnol. Prog. 21: 205-220). […] For microscopy studies, 150,000 cells were incubated with 50 μM PL of untargeted and EGFR-targeted ILs labeled with DiIC18(3)-DS in a 12-well plate for 2 h at 37° C., followed by washing with PBS and further incubation at 37° C. for 2 h. The cells were then analyzed by using an inverted fluorescence microscope (Nikon Eclipse, TE300) with a 540/25 nm band-pass filter for excitation and a long-pass filter at 565 nm for emission. For quantitative uptake of immunoliposomes, 250,000 cells were incubated with EGFR-targeted ILs labeled with ADS645 in a six-well plate for 2 h at 37° C., washed with PBS, removed in trypsin solution and fluorescence quantified with a FACSAria instrument (Beckton Dickinson). To determine the effect of EGF competition on internalization of EGFR-targeted ILs, IL internalization was quantified as described above, except that 50 μM targeted ILs and cells were incubated with EGF concentrations ranging from 0.2-25 nM. ANOVA (analysis of variance) was used to analyze the statistical differences of the quantified uptake.
To determine the impact of receptor density on IL uptake, we measured the uptake of the different ILs into MDAMB231 cells which express 480,000 EGFR/cell as determined by flow cytometry using Quantum Simply Cellular anti-Human IgG beads (Bangs Laboratories Inc.). […] Uptake into MDAMB231 cells increased with increasing scFv density, reaching a plateau at an IL scFv density of 74 scFv/IL for P2/4 scFv and at 37 scFv/IL for 2224 scFv (FIG. 6C).

[2] = target: MDAMB468 cells expressing intact EGFR (Homo sapiens, UniProt P00533); conditions: EGF competition
[3] = system: EGFR-over-expressing MDAMB468 cells; assay: Internalization/uptake of anti-EGFR immunoliposomes (microscopy, flow cytometry); format: cell-based, Human; conditions: 74 scFv/liposome; for endocytosis of ILs by fluorescence microscopy: MDAMB468
Method: as §3

[4] = target: T2, A431 cells expressing EGFR (Homo sapiens, UniProt P00533); assay: Measurement of scFv affinity for cells expressing EGFR (flow cytometry); format: binding; conditions: soluble monovalent scFv, 4° C.
T2 construct: Human squamous carcinoma A431 cells expressing EGFR; endogenous in cells; host or cells: A431 epidermal (squamous) carcinoma cells
Method: Human squamous carcinoma A431 cells expressing EGFR were grown to 80-90% confluence in RPMI medium supplemented with 10% fetal bovine serum and harvested by trypsinization. […] Cell binding was performed at 4° C. in FACS buffer in a volume calculated to ensure fivefold scFv excess and for a duration calculated to ensure that the reaction had reached equilibrium. After two washes with 200 μL of FACS buffer, cell-bound scFv was detected by the addition of 100 μl of 1 μg/ml biotinylated His probe (Santa Cruz Biotech.) and a 1:800 (v/v) dilution of streptavidin-PE (Biosource). After incubation at 4° C. for 30 min, the cells were washed twice and resuspended in PBS containing 4% (v/v) paraformaldehyde. Fluorescence was measured by flow cytometry in a FACS LSRII instrument (Becton Dickinson), and the median fluorescence intensity (MFI) values were fit to the equation:
MFI=MFImin+MFImax([Ab]/(KD+[Ab])
using the software program Kaleidagraph as described previously (Benedict et al. (1997) J. Immunol. Methods, 201: 223-231).

biotinylated EGFR-ECD = target: T3, biotinylated EGFR-ECD (Homo sapiens, UniProt P00533); assay: Yeast-displayed scFv affinity for biotinylated EGFR-ECD by flow cytometry; format: binding; conditions: scFv displayed on yeast; EGFR-ECD only 10% immunoreactive; read-out: KD for biotin-EGFR ECD
T3 construct: Recombinant EGFR-ECD was expressed in HEK293 cells; biotin (chemical label, NHS-sulfo-LC-biotin on amines); made in house; host or cells: HEK293 cells
Method: (§4) Generally, six to eight different concentrations of biotinylated EGFR were used to span a range of concentrations from ten times above to ten times below the KD. Incubation volumes, times and yeast numbers were chosen to ensure that the studies were done in at least fivefold antigen excess and that equilibrium had been achieved (Razai et al. (2005) J. Mol. Biol. 351: 158-169). For anti-EGFR scFv, […] in 50 μl were incubated with biotinylated EGFR-ECD for 1 h at room temperature. […] Only yeast displaying scFv (as determined by binding of SV5 mAb) were gated for affinity measurements.

[5] = target: T4, MDAMB468 cells expressing EGFR (Homo sapiens, UniProt P00533); assay: Immunoliposome binding affinity for cells expressing EGFR (flow cytometry); conditions: read-out: Apparent KD of immunoliposomes
T4 construct: Human breast cancer MDAMB468 cells expressing EGFR; endogenous in cells; host or cells: MDAMB468 breast carcinoma cells
Method: Human breast cancer MDAMB468 cells expressing EGFR were grown to 80-90% confluence in L15 medium supplemented with 10% FBS and harvested by trypsinization. ILs labeled with DiIC18(3)-DS were incubated overnight with 10^4 cells at concentrations of IL ranging from 0.31-2.5 nM. The concentration of IL was converted from the concentration of phospholipid on the basis of the approximate number of phospholipid molecules per liposome (80,000). Cell binding was performed at 4° C. in FACS buffer in adequate volume to ensure a fivefold excess of ILs and that the reaction had come to equilibrium. After two washes with 200 μl of FACS buffer, the amount of cell-bound ILs was quantified by flow cytometry in a FACS LSRII (Becton Dickinson). Data analysis was the same as for the measurement of scFv KD.

[6] = target: T5, biotinylated recombinant EGFR-ECD (UniProt P00533 25-645, limits assumed, biotinylated with NHS-sulfo-LC-biotin); assay: flow cytometry, yeast-displayed scFv, biotinylated EGFR-ECD, equilibrium
T5 construct: extracellular domain; The claims speak of human EGFR; also called biotin-EGFR ECD; biotinylated EGFR
Method: as §4

[7] = target: T1, epidermal growth factor receptor (EGFR) …; assay: flow cytometry, soluble scFv on A431 cells; this end is tied to P3/5 through the KD values of Table 2
Method: as §1, with “After” for “Cell binding was performed at 4° C. in FACS buffer in a volume calculated to ensure fivefold scFv excess and for a duration calculated to ensure that the reaction had reached equilibrium. After”
as §2

B1: anti-EGFR scFv C10 (scFv, V domains shown)
VH: EVQLVQSGAEVKKPGSSVKVSCKASGGTFSSYAISWVRQAPGQGLEWMGGIIPIFGTANYAQKFQGRVTITADESTSTAYMELSSLRSEDTAVYYCAREEGPYCSSTSCYGAFDIWGQGTLVTVSS
VL: QSVLTQDPAVSVALGQTVKITCQGDSLRSYFASWYQQKPGQAPTLVMYARNDRPAGVPDRFSGSKSGTSASLAISGLQSEDEADYYCAAWDDSLNGYLFGAGTKLTVL
notes: Soluble monomeric scFv from pSYN1 in E. coli (Ni-NTA purified, detected with a His probe) in the assays on cells; also called C10 scFv; wild-type C10 scFv
Kd [1]: 264 nM

B2: 2224: combined mutant scFv: P2/2 with the VH CDR3 Gly to Ala mutation from P2/4; SEQ ID NO:17 and 24 (protein)
scFv: QSVLTQDPAVSVALGQTVKITCQGDSLRSYLASWYQQKPGQAPTLVTYARNDRPAGVPDRFSGSKSGTSASLAISGLQSEDEADYYCAAWDDSLNGYLFGAGTKLTVL
modifications: Variable chain of single chain antibody.
IL scFv density at which uptake into MDAMB231 cells reaches a plateau (MDAMB231 cells): 37 scFv/IL
IL uptake into MDAMB231 cells compared to A431 cells (MDAMB231 cells): significantly less uptake
IC50 of ILs less than the scFv IC50 [2]: 20 fold
difference in IL uptake versus ILs from C10 or P2/4 scFv ([3]; IL 0.63 nM, flow cytometry): no statistically significant difference
endocytosis of ILs by fluorescence microscopy [3]: endocytosed efficiently

B3: P2/4: C10 scFv mutant, Gly to Ala in VH CDR3 and Pro to Ala in VL FR1; SEQ ID NO:5 (protein)
scFv: EVQLVQSGAEVKKPGSSVKVSCKASGGTFSSYAISWVRQAPGQGLEWMGGIIPIFGTANYAQKFQGRVTITADESTSTAYMELSSLRSEDTAVYYCAREEGPYCSSTSCYAAFDIWGQGTLVTVSS
modifications: Variable chain of single chain antibody.
Kd [4]: 15 nM and 15.4 nM
Kd (biotinylated EGFR-ECD): 1800 nM
IL scFv density at which uptake into MDAMB231 cells reaches a plateau (MDAMB231 cells): 74 scFv/IL
IL uptake into MDAMB231 cells compared to A431 cells (MDAMB231 cells): significantly less uptake
Kd ([5]; 37 scFv/liposome): 2.04 nM
Kd ([5]; 74 scFv/liposome): 0.4 nM
Kd ([5]; 148 scFv/liposome): 0.18 nM
IL uptake greater compared to C10 ([3]; IL 0.63 nM, flow cytometry): 24%
endocytosis of ILs by fluorescence microscopy [3]: endocytosed efficiently

B4: P3/5: C10 scFv mutant from the P3 sort gate; SEQ ID NO:11 (protein)
scFv: EVQLVQSGAEVKKPGSSVKVSCKASGGTFSSYAISWVRQAPGQGLEWVGGIIPIFGTANYAQKFQGRVKITADESASTAYMELSSLRSEDTAVYYCAREEGPYCSSTSCYGAFDIWGQGTLVTVSS
modifications: Variable chain of single chain antibody.
Kd [4]: 88 nM

B5: combined C10 mutant scFv 2224 (scFv, V domains shown)
VH: EVQLVQSGAEVKKPGSSVKVSCKASGGTFSSYAIGWVRQAPGQGLEWMGGIIPIFGIANYAQKFQGRVTITADESTSSAYMELSSLRSEDTAVYYCAREEGPYCSSTSCYAAFDIWGQGTLVTVSS
VL: QSVLTQDPAVSVALGQTVKITCQGDSLRSYFASWYQQKPGQAPTLVMYARNDRPAGVPDRFSGSKSGTSASLAISGLQPEDEADYYCAAWDDSLNGYLFGAGTKLTVL
notes: P2/2 with the VH CDR3 Gly to Ala substitution of P2/4; soluble His-tagged monomeric scFv on cells
Kd [6]: 600 nM

B6: C10 mutant scFv P2/2 (scFv, V domains shown)
VH: EVQLVQSGAEVKKPGSSVKVSCKASGGTFSSYAIGWVRQAPGQGLEWMGGIIPIFGIANYAQKFQGRVTITADESTSSAYMELSSLRSEDTAVYYCAREEGPYCSSTSCYGAFDIWGQGTLVTVSS
VL: QSVLTQDPAVSVALGQTVKITCQGDSLRSYFASWYQQKPGQAPTLVMYARNDRPAGVPDRFSGSKSGTSASLAISGLQPEDEADYYCAAWDDSLNGYLFGAGTKLTVL
notes: soluble His-tagged monomeric scFv on cells
Kd [1]: 17 nM
Kd [6]: 1800 nM

B7: C10 mutant scFv P3/5 (scFv, V domains shown)
VH: EVQLVQSGAEVKKPGSSVKVSCKASGGTFSSYAISWVRQAPGQGLEWVGGIIPIFGTANYAQKFQGRVKITADESASTAYMELSSLRSEDTAVYYCAREEGPYCSSTSCYGAFDIWGQGTLVTVSS
VL: QSVLTQDPAVSVALGQTVKITCQGDSLRSYLASWYQQKPGQAPTLVTYARNDRPAGVPDRFSGSKSGTSASLAISGLQSEDEADYYCAAWDDSLNGYLFGAGTKLTVL
notes: as for B6
Kd [1]: 88.2 nM
fold improvement in affinity compared to C10 scFv [7]: 3 to 18 fold
